One test deals with HLA-A*0201 molecule on human T2 cells (human).
Experiment: not given
TLLLWVLLL (modifications not checked) [RSV F peptide No. 1 (F5-13)] yielded an MFI above baseline (% higher than the baseline) of 10.

The next test shares this target. The test is described as follows: T2-based binding assay, flow cytometry with FITC anti-HLA-A2. In general terms: A flow cytometer gives signals particle by particle.
In the case of KIMTSKTDV (modifications not checked) [RSV F peptide No. 17 (F417-425)], the MFI ratio (ratio to the negative control) was found to be 0.91.

Another test shares this target. The test is described as follows: T2 cell-stabilization assay, flow cytometry with FITC anti-HLA-A2, peptide 50 µg/mL.
On to LLSTNKAVV (modifications not checked) [RSV F peptide No. 9 (F194-202)], for which the MFI ratio (fold of the negative control) is 1.5.
In the case of FLLGVGSAI (modifications not checked) [RSV F peptide No. 6 (F163-171)], the MFI above baseline (% higher than the baseline) is 10.
Take LLSLIAVGL (modifications not checked) [RSV F peptide No. 24 (F561-569)]: the MFI ratio (fold of the negative control) came out at 1.5.
Take LMSNNVQIV (modifications not checked) [RSV F peptide No. 16 (F296-304)]: the MFI ratio (fold of the negative control) is 1.5.
As to KVLDLKNYI (modifications not checked) [RSV F peptide No. 13 (F214-222)], the MFI above baseline (% higher than the baseline) stood at 10.
ALLSTNKAV (modifications not checked) [RSV F peptide No. 8 (F193-201)] yielded an MFI above baseline (% higher than the baseline) of 10.
In the case of YMLTNSELL (modifications not checked) [RSV F peptide No. 14 (F273-281)], the MFI ratio (fold of the negative control) was 1.5.
Regarding SVGNTLYYV (modifications not checked) [RSV F peptide No. 18 (F474-482)], the MFI above baseline (% higher than the baseline) was 10.
Same read-out and setting: with SLIAVGLLL (modifications not checked) [RSV F peptide No. 25 (F563-571)] the figure was 10.
VILLSLIAV (modifications not checked) [RSV F peptide No. 23 (F559-567)]: the MFI ratio (fold of the negative control) was determined as 1.5.
As to KLMSNNVQI (modifications not checked) [RSV F peptide No. 15 (F295-303)], the MFI ratio (fold of the negative control) came to 1.5.
AITTILAAV (modifications not checked) [RSV F peptide No. 3 (F33-41)]: the MFI ratio (fold of the negative control) is 1.5.
